According to patent US20130022590, “Compositions Comprising Zinc Finger Domains and Uses Therefor” (published 2013):
Substitutions are numbered along the chain they refer to.

Experiments:
ZRANB2-F2 R82N = molecular target: T1, ZRANB2-F2 R82N (Homo sapiens, UniProt O95218 O95218:65-95, R82N); experiment: FP; also about 2-fold increase versus WT F2; conditions: label: 5'-fluorescein
T1 chain: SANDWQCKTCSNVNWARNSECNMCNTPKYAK
Experimental: (§1) The anisotropy titrations were performed with a starting RNA concentration of 50 nM in a buffer comprising either 10 mM Tris (pH 8.0), 50 mM KCl, 5 mM MgCl₂, 0.05 mg/mL heparin, and 1 mM DTT (for GST fusion constructs) or 10 mM Mops (pH 7.3), 50 mM NaCl, 0.05 mg/mL heparin, and 1 mM DTT (for ZRANB2-F12). RNasin (Promega) was also added to the protein solution to a concentration of 2 units/μL. Protein was titrated into this starting solution and anisotropy values measured on a Cary Eclipse fluorescence spectrophotometer fitted with manual polarizer and long-pass filters set to 475 and 515 nm for excitation and emission, respectively. Excitation and emission wavelengths were set at 495 and 520 nm, respectively (10-nm slits) and the temperature was maintained at 25° C. by using a block temperature controller. Association constants were determined by nonlinear least squares regression analysis using a 1:1 binding model. […]

ZRANB2-F12 delta45-64 [1] = molecular target: T2, ZRANB2-F12 delta45-64 (Homo sapiens, UniProt O95218 O95218:1-44+65-95, del45-64); experiment: FP; lower affinity than F122; conditions: label: 5'-fluorescein
Experimental: as §1, with “Fluorescence Anisotropy titrations e.g., as shown in FIGS. 1D-F, 8 and 35, were carried out using standard protocols. In brief, 5′-Fluorescein-labeled RNA oligonucleotides were quantified by A₂₆₀, correcting for fluorescein absorbance by using A₄₉₃. For single-site experiments, the sequence […] (SEQ ID NO: 28), or single base mutants thereof, was used. For double-site experiments, two AGGUAA sites were separated by different length sequences as indicated, and the total oligonucleotide lengths were kept constant by the symmetrical addition of adenines to each end. The” for “The”, “Excitation and emission wavelengths were set at 495 and 520 nm, respectively (10-nm slits) and the temperature was maintained at 25° C. by using a block temperature controller.” left out

ZRANB2-F12 [2] = molecular target: T3, ZRANB2-F12 (Homo sapiens, UniProt O95218 O95218:1-95); experiment: FP; range stated for deletion construct and comparable wild type; conditions: tags: GST removed for FA, gel shift and SPR; label: 5'-fluorescein
Experimental: (§2) Fluorescence Anisotropy titrations e.g., as shown in FIGS. 1D-F, 8 and 35, were carried out using standard protocols. In brief, 5′-Fluorescein-labeled RNA oligonucleotides were quantified by A₂₆₀, correcting for fluorescein absorbance by using A₄₉₃. For single-site experiments, the sequence […] (SEQ ID NO: 28), or single base mutants thereof, was used. For double-site experiments, two AGGUAA sites were separated by different length sequences as indicated, and the total oligonucleotide lengths were kept constant by the symmetrical addition of adenines to each end. […] Protein was titrated into this starting solution and anisotropy values measured on a Cary Eclipse fluorescence spectrophotometer fitted with manual polarizer and long-pass filters set to 475 and 515 nm for excitation and emission, respectively. […] Association constants were determined by nonlinear least squares regression analysis using a 1:1 binding model.
(§3) The inventors have employed deletion mutagenesis to thereby identify a minimal inter-finger linker region of ZRANB2 required for specific ssRNA-binding. […] The deletion constructs were then tested for an ability to bind the ssRNA substrate 5′-GGUNXGGU-3′ comprising a repeat of the GGU core sequence using fluorescence anisotropy titration.

ZRANB2-F12 delta47-61 = ZRANB2-F12 delta47-61 (Homo sapiens, UniProt O95218 O95218:1-46+62-95, del47-61); experiment: FP; about 30-51e6 stated; order comparable to wild-type F12; conditions: label: 5'-fluorescein
Experimental: as §2, §3

EKLF-F123 = EKLF-F123 (UniProt P46099 P46099:275-357); experiment: FP; higher affinity than poly(C) or AGGUAA; also HSQC titration; conditions: tags: zinc fingers 1-3
Chain of EKLF-F123 (P46099 275-357, one chain of several): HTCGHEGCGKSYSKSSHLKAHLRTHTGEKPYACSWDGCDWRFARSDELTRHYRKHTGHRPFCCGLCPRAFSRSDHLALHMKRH

ZRANB2-F12 [3] = molecular target: T3, ZRANB2-F12; experiment: FP; affinity increases with spacing; value in figure only; conditions: tags: GST removed for FA, gel shift and SPR; label: 5'-fluorescein
Experimental: as §2
The importance of the spacing between AGGUAA motifs was assessed by measuring binding of F12 to double sites that were separated by −1 to 8 nt (where −1 denotes the sequence […] SEQ ID NO: 33; FIG. 1E, lanes 5-10).

ZRANB2-F2 (untagged) = molecular target: T4, ZRANB2-F2 (untagged) (Homo sapiens, UniProt O95218 O95218:65-95); experiment: structure; crystal structure 1.4 A; W79 stacks between G2 and G3
T4 chain: T1 chain with N18R

[4] = molecular target: EWS RanBP2-type zinc finger (Homo sapiens, UniProt Q01844 Q01844:518-549); experiment: FP; value in figure only; conditions: tags: expressed as GST fusion
Chain of EWS RanBP2-type zinc finger (Q01844 518-549, one chain of several): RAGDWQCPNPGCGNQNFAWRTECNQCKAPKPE
Experimental: Fluorescence Anisotropy titrations e.g., as shown in FIGS. 1D-F, 8 and 35, were carried out using standard protocols. In brief, 5′-Fluorescein-labeled RNA oligonucleotides were quantified by A₂₆₀, correcting for fluorescein absorbance by using A₄₉₃. For single-site experiments, the sequence […] (SEQ ID NO: 28), or single base mutants thereof, was used. For double-site experiments, two AGGUAA sites were separated by different length sequences as indicated, and the total oligonucleotide lengths were kept constant by the symmetrical addition of adenines to each end. The anisotropy titrations were performed with a starting RNA concentration of 50 nM in a buffer comprising either 10 mM Tris (pH 8.0), 50 mM KCl, 5 mM MgCl₂, 0.05 mg/mL heparin, and 1 mM DTT (for GST fusion constructs) or 10 mM Mops (pH 7.3), 50 mM NaCl, 0.05 mg/mL heparin, and 1 mM DTT (for ZRANB2-F12). RNasin (Promega) was also added to the protein solution to a concentration of 2 units/μL. Protein was titrated into this starting solution and anisotropy values measured on a Cary Eclipse fluorescence spectrophotometer fitted with manual polarizer and long-pass filters set to 475 and 515 nm for excitation and emission, respectively. […] Association constants were determined by nonlinear least squares regression analysis using a 1:1 binding model.

ZRANB2-F12 delta45-64 [5] = molecular target: T2, ZRANB2-F12 delta45-64; experiment: FP; conditions: label: 5'-fluorescein

With AGUUAA (ssRNA) [AGUUAA (3U)] the binding signal (ZRANB2-F2 R82N) was ~2 fold higher than AGGUAA.

AAAGGUGGUAAAA (ssRNA) [GGUGGU 13-mer]: binds (ZRANB2-F12 delta45-64 [1]); binds (ZRANB2-F12 [2]); binds (ZRANB2-F12 delta47-61).

UUUUUUUUU (ssRNA) [U9]: binds (EKLF-F123).

AGGUAAGGUAA (ssRNA) [double site spacing -1]: binds (ZRANB2-F12 [3]).

AGGUAA (ssRNA) [AGGUAA hexamer]: binds (ZRANB2-F2 (untagged)); binds [4].

For AAGGUGGUGGUAA (ssRNA) [GGUGGUGGU 13-mer], the Ka (ZRANB2-F12 delta45-64 [5]) was ~2.5e+07 M⁻¹.
